Nine molecules from PMC10287957, “RecF protein targeting to postreplication (daughter strand) gaps I: DNA binding by RecF and RecFR” can be followed below.

In data set [1] the target is T1, RecF (Escherichia coli, UniProt P0A7H0 1-357).
T1 sequence: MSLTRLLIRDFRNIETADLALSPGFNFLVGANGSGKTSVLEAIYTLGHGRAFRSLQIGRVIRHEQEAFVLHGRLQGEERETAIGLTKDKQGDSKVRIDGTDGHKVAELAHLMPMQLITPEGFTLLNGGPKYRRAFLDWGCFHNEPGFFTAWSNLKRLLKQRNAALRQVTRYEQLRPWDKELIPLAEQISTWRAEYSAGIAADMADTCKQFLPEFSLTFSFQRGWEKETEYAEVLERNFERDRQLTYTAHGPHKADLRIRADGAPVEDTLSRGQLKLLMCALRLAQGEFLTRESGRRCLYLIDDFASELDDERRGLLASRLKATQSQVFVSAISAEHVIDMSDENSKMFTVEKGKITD
Nature of the data set: fluorescence anisotropy. Particulars: 30 mM Tris-Cl pH 7.5, 100 mM NaCl, 10 mM MgCl2, 0.1 mM EDTA, 1 mM DTT, 30% glycerol, 0.1 mg/ml BSA, 10 nM DNA, 25 C, 3 mM ATP and 5 uM RecR where indicated. A general note: In fluorescence polarisation assays a small probe gives low polarisation when free and higher when bound to something large.

Data set [2] has as its target RecF;RecR (Escherichia coli;Escherichia coli) (UniProt P0A7H0). Put plainly: fluorescence anisotropy. Particulars: 3 mM ATP, 5 uM RecR, 30 mM Tris-Cl pH 7.5, 100 mM NaCl, 10 mM MgCl2, 0.1 mM EDTA, 1 mM DTT, 30% glycerol, 0.1 mg/ml BSA, 10 nM DNA, 25 C, 3 mM ATP and 5 uM RecR where indicated.
Data set [3] deals with T1, RecF. Nature of the data set: fluorescence anisotropy; 3 mM ATP; 30 mM Tris-Cl pH 7.5, 100 mM NaCl, 10 mM MgCl2, 0.1 mM EDTA, 1 mM DTT, 30% glycerol, 0.1 mg/ml BSA, 10 nM DNA, 25 C; 3 mM ATP and 5 uM RecR where indicated. Conditions: protein: recombinant; chain copies: 2; label: 5' FAM.

A word on the Kd: it is the equilibrium constant for the complex coming apart. For iFAM ss_5P 50mer, the Kd in the data set with RecF [1] (5' phosphate) worked out at 0.116 µM; with RecF [1] (no ATP, Kd nearly in the uM range, h 1, 5' phosphate), 1 µM.
With iFAM css (circular 50mer), the figures for the Kd (in data set [2] (circularized by ligation); with RecF [1] (circularized by ligation)) were 68.4 nM and 0.0978 µM, respectively.
40mer dsDNA 5FAM returned a Kd with RecF [1] of 0.175 µM.
On the same count and under the same terms, the same measure for iFAM ss 50mer (dephosphorylated): 0.112 µM.
In the case of 20mer dsDNA 5FAM, the Kd in data set [2] came out at 109 nM; in the data set with RecF [1] (3 mM ATP, h 2.4), 0.067 µM.
Take 40mer ssDNA 5FAM (random sequence): the Kd with RecF [1] was determined as 0.134 µM.
For the molecule 31mer dsDNA 5FAM, in the data set with RecF [1], the Kd was 0.108 µM.
20mer ssDNA 5FAM: the Kd with RecF [1] (3 mM ATP, h 1.1) stood at 0.64 µM.
For TTTTTTTTTTTTTTTTTTTTTTTTTTTTTTT (ssDNA) [31 polydT ssDNA 5FAM], the Kd with RecF [3] was 93 nM.
